# Assay: yeast display, Sf9 membrane polyspecificity reagent, FACS + sequencing; frameworks hold sequencing errors
# Procedure, shortened: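 Nanobodies came from a synthetic yeast display library in Saccharomyces cerevisiae BJ5465, induced with galactose for 36–48 hours and stained for 1 hour at 4 °C with 10% biotinylated, detergent-solubilized Sf9 membrane reagent. Cells were enriched on streptavidin microbeads and then FACS-sorted, with low and high (top ~1%) gates set on anti-HA fluorescence for expression and streptavidin fluorescence for reagent binding. Each polyreactivity label reflects the gate a clone came from. Genes were amplified by colony PCR, sequenced by MiSeq 2 × 250 and filtered by CDR length.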
row,Sequence,polyreactivity (PSR sort gate)
1,QVQLVESGGGLDQAGGSLRLSCAASGFIFTVYAMGWYRQAPGKEREVVAAISSGGSTYYADSVKGRFTISRDNAKNTVYLQMNSLKPEDTADYYCAAQPSYRYYKSYDSWGQGTQVTVSS,high polyreactivity
2,QVQLVESGGGLDQAGGSLRLSCAASGFTFAYNARGRYRQAPGKERELVAAITTRGGGTYYADSVKGRFTISRDNAKYTVYLQMNSLKPEDTAVYYCAAKKSRYPYNYWGQGTQVTVSS,high polyreactivity
3,QVQLVESGGGLDQAGGSLRLSCAASGFTFVDYDIGWYRQATGKERELVAAITYSGGSTSYADSVKGRFTISRDNSKTTFYLQMNSLKPEDTAVYYCAGEPVGEIMDYWGQGTQVTVSS,low polyreactivity
4,QVQLVESGGGLDQAGGSLRLSCAASGIIFYVNDMGWYRQAPGKERELVADISGGTSTNYADSVKGRFTISRDNAKNTVYLQMNSLKPEDTAVYYCATAFIVPFPGSDYCGQGTQVTVSS,low polyreactivity
5,QVQLVESGGGLDQAGGSLRLSCAASGITVTSYVMGWYRQAHWKERELVAAIRWSGGRTYYADSVKGRFTISRDNAKNTVYLQMNSLKPEDTAVYYCNRVTRSHVDYWGQGTQVTVSS,high polyreactivity
6,QVQLVESGGGLDQAGGSLRLSCAASGKTFGNYGMGWYRQAPGKERELVAAISWTGGSTYYADSVKGRFTISRDNAKNTVYLQMNSMKPEDTAVYSCNKRPYLLFDYWGQGTQVTVSS,high polyreactivity
7,QVQLVESGGGLDQAGGSLRLSCAASGLIFYTYAMGWYRQAPGKERELVADINRSDGSTYYADSVKGRFTISRDNAKNTVYLQMNSLKPEDTAVYYCAVVGTYYSRFGGRYYYWGQGTQVTVSS,low polyreactivity
8,QVQLVESGGGLDQAGGSLRLSCAASGRIFGRNAMGWYRQAPGKERELVAAITWSGGSTNYADSVKGRFTISRDNAKNTVYLEMNSLKPEDTAFYYCAKRYTPRPYKGICYYYWGQGTQVTVSS,high polyreactivity
9,QVQLVESGGGLDQAGGSLRLSCAASGRIFSPNAMGWYRQAPGKERELVAAISRIGGRTYYADSVKGRFTISRDNAKNTVYLQMNSLKPEDTGVFYCNVVATHTDFTYDFWGQGTQVTVSS,high polyreactivity
10,QVQLVESGGGLDQAGGSLRLSCAASGRILRGYVMGWYRQAPGKERELVATITGRGGSTYYADSVKGRFTISRDNAKNSVYLQMNSLKPEDPAVYYCNKDGYPYFGRSESWGQGPQVTVSS,low polyreactivity
11,QVQLVESGGGLDQAGGSLRLSCAASGRTFADYAMGWYRQAPGNERELVADISKRGGSTYFADSVKGRFTISRDNAKNTFYLQMNSLKAEDTAVYYCAAGWYYYPTFYKVKSYNYWGQGTQVTVSS,high polyreactivity
12,QVQLVESGGGLDQAGGSLRLSCAASGRTFIRNVMGWYRQAPGKERELVAGITGGGNTYYADSVKGRFTISRDNAKNTVYLQMNSLKPEDTAVYYCAVRYPSYGLSYVRYGYWGQGTQVTVSS,high polyreactivity
13,QVQLVESGGGLDQAGGSLRLSCAASGRTFKWNAIGWYRQAHGKERELVASITSGGSTNYADSVKGRFTISRDNAKNTVYLQMNSLKPEDTAVYYCNAEYYLFKRPYSYYYWGQGTQVTVSS,low polyreactivity
14,QVQLVESGGGLDQAGGSLRLSCAASGRTFTEYAMGWYRQAPGKERELVARISIGDSTYYADSVKGRFTISRDNAKNTDYLQMNSLKPEDTAVYYCNAEYSRSYRYDEGYWGQGTQVTVSS,low polyreactivity
15,QVQLVESGGGLDQAGGSLRLSCAASGRTFVYYALGWYRQAPRQERELVAAITWSGGRTYYADSVKGRFTISRDNAKNTVYLQMNSLKPEDTAVYYCNRDQWAWESGYAYNYCGQGTQVTVSS,low polyreactivity
16,QVQLVESGGGLDQAGGSLRLSCAASGRTFYIYTMGWYRQAPGKERELVAAISSSGDSTYYADSVKGRFTISRDNGKNTVYLQMNSLKPEDTAVYYCAAYATYPDEYWGEGTQVTVSS,low polyreactivity
17,QVQLVESGGGLDQAGGSLRLSCAASGRTFYYNAMGWYRQAPGKERELVADINWSGVRTYYADSVKGRFTISRDNAKNTVYLQMNSLKPEDTAVYYCAARYRTLTKYYWGQGTQVTVSS,low polyreactivity
18,QVQLVESGGGLDQAGGSLRLSCAASGSIFDSNAMGWYRQAPGKERELVAAISLSGGSTYYADSVKGRFTISRDNAKNTVYLQMNSLKPEDTAVYYCAKDGWYEYYWGQGTQVTVSS,low polyreactivity
19,QVQLVESGGGLDQAGGSLRLSCAASGSIFGSYAMGWNTPAPGKERELVAAISVSGGSTYYADSVKGRFTISRYNAKNTVYLQMNSLKPEDTAVYYCAADWQELEYDYWGQGTQVTVSS,low polyreactivity
20,QVQLVESGGGLDQAGGSLRLSCAASGSIFGSYTMGWYRQAPGKERQLVAVINWSGDRTYYADSVKGRFTISRDNAKNTVYLQMNSLKPEDTAVYYCAARERAGYSRIRYNYWGQGTQGTVSS,high polyreactivity
21,QVQLVESGGGLDQAGGSLRLSCAASGSIFGYYAMGWYRQAPGKERELVAAISRSGGSTYYADSVKGRFTISRDNAKNTVYLQMNSLKPEDTAVYYCAARPPYRVGIVPLGRREYYWGQGTQVTVSS,high polyreactivity
22,QVQLVESGGGLDQAGGSLRLSCAASGSIFNYKAMGWYRQAPGKEREMVAGISYHGDSTYADSVKGPFTISRDNAKNTVYLQMKSLKPEDTAVYYCAALGPDDWLWAGDYWGQGTQVTVSS,low polyreactivity

row,Sequence,polyreactivity (PSR sort gate)
1,QVQLVESGGGLDQAGGSLRLSCAASGSIFSDNVMGWYRQAPGKERELVAAIRDGDTTNYADSVKGRFTISRDNAKNTVYLQMNSLKPEDTAVYYCAAVQDSSPDYSYAYLDGDRDYWGQGTQVTVSS,low polyreactivity
2,QVQLVESGGGLDQAGGSLRLSCAASGSIFSGYAMGWYRQAPGKERELVAGISSRGGRTYYADSVKGRFTISRDNAKNTVYLQMNSLKPEDTAVYYCAARWSRSRTSDRYNYWGQGTQVTVSS,high polyreactivity
3,QVQLVESGGGLDQAGGSLRLSCAASGSIFTVNAMGWYRQAPGKERELVAAIDGSSGSTNYADSVKGRFTISRDNAKNTVYLQMNSLKPEDTAVYFCAADWSYEYGYWGQGTQVTVSS,low polyreactivity
4,QVQLVESGGGLDQAGGSLRLSCAASGSILVSNDMGWYRQAPGKERELVAAISWSGGSTYYADSVKGRFTISRDNAKNTVYLQMNSLKPEDTAVYYCAAGFGFLFARQELDFDYWGQGTQVTVSS,low polyreactivity
5,QVQLVESGGGLDQAGGSLRLSCAASGSLFARNTMGGYRQAPGKERELVATITARGGSTYADSVKGRFTISRDNAKNTVYLQMNSLKPEDTAVYYCNADYGLFSRATFYGYDYWGQGTQVTVSS,low polyreactivity
6,QVQLVESGGGLDQAGGSLRLSCAASGSTFKPNVMGWYRQAPGEERELVAAISSRGGRTYYADSVKGRFTISRDNEKNNVYLQMNRLKPEDTAVYYCAALYLATGVDKAFDSWGQGTQVTVSS,high polyreactivity
7,QVQLVESGGGLDQAGGSLRLSCAASGSTFKWNAMGWYRQAPGKERELVAAISKGSVNTYYADSVKGRFTISRDNAKNTVYLQMNSLKPEDTAVYYCAADRRYPALDYWGQGTQVTVSS,high polyreactivity
8,QVQLVESGGGLDQAGGSLRLSCAASGSTFQVNVMAWYRQAPGKEREFVAGISYSGGSTYYADSVKGRFTISRDNAKNTVYLQMNSLKPEDTAVYYCAAEEDYNIAGSWTYTYDYWGQGTQVTVSS,low polyreactivity
9,QVQLVESGGGLDQAGGSLRLSCAASGSTFSGYAMGWYRQAPGKERELVATITRRGGNTYYADSVKGRFTISRDNAKNTVYLQMNSLKPEDTAVYYCAKDGRVHSPYDYWGQGTQVTVSS,low polyreactivity
10,QVQLVESGGGLDQAGGSLRLSCAASGSTFSIYTMGWYRQAPGKEREFVAAITYIGGRTYYADSVKGRFTISRDNAKNTVYLQMNSLKPEDTAVYYCAADWAYYVASYLYYTFDYWGQGTQVTVSS,low polyreactivity
11,QVQLVESGGGLDQAGGSLRLSCAASGSTFWGYTMGWYRQAPGKERELVAAITSGGSTNYADSVKGRFTISRDNAKNTVYLQMYSLKPEDTAVYYCNAVYPGRRRYRKWYIYDYWGQGTQVTVSS,high polyreactivity
12,QVQLVESGGGLDQAGGSLRLSCAASGSTFYYNTMGWYRQAPGKERELVAAISWRGVSTYYADSVKGRFTISRDNAKNTVYLQMNSLKPEDTAVYYCNAVHHYPEHIGGGYWGQGTQVTVSS,low polyreactivity
13,QVQLVESGGGLDQAGGSLRLSCAASGSTFYYYAMGWYRQAPGKERELVASISDDGSTNYADSVKGRFTISRDNAKNTVYLQMNSLKPEDTAVYYCAAVWWHQFGSAWYQMGYWGQGTQVTVSS,low polyreactivity
14,QVQLVESGGGLDQAGGSLRLSCAASGSTLGRYTMGWYRQAPGKERELVAAITRGGRTNYADSVKGRFTISRDNAKNTVYLQMNSLKPEDTAVYYCAKLYRYGDYDYWGQGTQVTVSS,high polyreactivity
15,QVQLVESGGGLDQAGGSLRLSCAASGSTLGYNAMGWYRQAPGKERVLVAAISRSGGITYYADSVKGRFTISRDTAKNTVYLQMNSLKPEDTAVYYCNAVDRTRYRPGNDYDYWGQGTQVTVSS,high polyreactivity
16,QVQLVESGGGLDQAGGSLRLSCAASGSTLGYNVMGWYRQAPGKERELVAAISGDGSTNYADSVKGRFTISRDNAKNTVYLQMNSLKPEDTAVYYCAARPGWFAGYEYWGQGTQVTVSS,low polyreactivity
17,QVQLVESGGGLDQAGGSLRLSCAASGTIFTFYTMGWYRQAPGKERELVAAINWSGSRTYYADSVKGRFTISRDNAKNTVYLQMNSLKPEDTAVYYCAAEHWFPSAPWYYSDLHYYWGQGTQVTVSS,high polyreactivity
18,QVQLVESGGGLDQAGGSLRLSCAASGYILPKNTMGWYRQAPGKERELVAAISWSGGSTFYADSVKGRFTISRDNAKNTVYLQMNSLKPEETAVYYCAADRSWSWYYRYDYWGQGTQVTVSS,low polyreactivity
19,QVQLVESGGGLDQAGGSLRLSCAASGYIVRNAMGWYRQAPWKERELVAAISRRGGSTYYADSVKGRFTISRDNAKNTVYLQMNSLKPEDTAVYYCAKDNVIPSFVADYYYWGQGTQVTVSS,high polyreactivity
20,QVQLVESGGGLDQAGGSLRLSCAASGYTFGRNAMGWYRQAPGKERELVATISQRGGSTYYADSVKGRFTISRDNANNTVYLQMNSLKPEDTAVYYCAAGPIYRYRRYYYWGQGTQVTVSS,high polyreactivity
21,QVQLVESGGGLDQAGGSLRLSCAAYGGTLYYNAMGWYRQAPGKEREFVAAISSRGGRTYYADSVKGRFTISRDNAKNTVYLQMNSLKPEDTAVYYCAGSRTGRTYPSNRMYYWGQGTQVSVSS,high polyreactivity

# — the nanobody polyreactivity screen of Harvey et al. (2022)
